This note sets out measurements from patent US6780974B2, “Synthetic DNA encoding an orange seapen-derived green fluorescent protein with codon preference of mammalian expression systems and biosensors” (Cellomics, Inc., priority 2001, dated 2004).

What all share (assay type): cell-based
Data set [1] concerns COS1 cells. In words: Fluorescence of COS1 cells transiently transfected with humanized versus wild type PtFP DNA (ARRAYSCAN II). Conditions: transient transfection. An excerpt:
The difference at the nucleotide level (versus codon level) is that the hPtFP open reading frame (including the stop codon) contains 720 nucleotides, whereas the PtFP open reading frame (including the stop codon) contains 717 nucleotides. It will be appreciated by those skilled in the art, that without counting the extra valine introduced into hPtFP of the present invention, there are 166 nucleotide differences between the 717 nucleotides compared, or 23.15 percent difference (or 76.85% identity). If the stop codon is excluded in this comparison, there are 165 nucleotide differences in the 714 nucleotides compared, or 23.10 percent difference (or 76.9% identity). […]
To compare the expression of wild type Ptilosarcus gurneyi fluorescent protein DNA with humanized Ptilosarcus gurneyi green fluorescent protein synthetic DNA as described above, an expression vector for the wild type Ptilosarcus gurneyi DNA was constructed by cloning the wild type PtFP into the expression vector M2, and thus, these two expression vectors under comparison differed only in their coding regions. […] The purified DNA preps were quantitated by reading the optic absorption at 260 nm (nanometers) with a HP8453 UV—visible spectrophotometer (Agilent Technologies, Palo Alto, Calif., USA) and calculated based on 1 O.D.=[…] DNA. […]

Another data set deals with HEK293 cells. The experiment in a line: Percentage of hPtFP-positive cells in stably transfected HEK293 mixed population during passage (growth / toxicity). Conditions: for toxicity to host cells: stably transfected mammalian host cells (HEK293). The method, then:
The cells were co-transfected with the hPtFP construct and pSV2-neo (Cat #37149, ATCC, Manassas, Va., USA) with FUGENE 6 transfection reagent (Roche Molecular Biochemicals, Indianapolis, Ind., USA) following the manufacturer's instructions. Two days after transfection, cells were treated with 0.4 mg/ml (milligram/milliliter) G418 in normal growth medium. After treating with G418 for two weeks, drug resistant cells were isolated or pooled. A mixture of stably transfected HEK293 mixed population (in which about 30% of the cells expressing hPtFP of this invention) were plated out in 96 cell micro plates. After 2, 4, or 6 days incubation, the cells were fixed with 3.7% formaldehyde for 20 minutes at room temperature (25° Centigrade). The percentage of positive cells was quantitated with ARRAYSCAN II instrument, as described herein.
To compare the growth rates of cells expressing or not expressing hPtFP, a mixture of stably transfected HEK293 mixed population (in which about 30% of the cells expressing hPtFP of this invention) were plated out in 96-well micro plates. After 2, 4, or 6 days incubation, the cells were fixed with 3.7% (percent) formaldehyde for twenty minutes at room temperature (25 degrees Centigrade). The percentage of positive cells was quantitated with ARRAYSCAN II instrument, as described herein.

In data set [2] the test system is COS1 cells. In words: In situ absorption and emission spectra of live COS1 cells expressing hPtFP. As to conditions: in COS-1 cells. On the procedure: Forty-eight hours after initial transfection with the synthetic green fluorescent protein DNA of the present invention, COS1 cells were trypsinized and were kept in suspension. The absorption and emission spectra of the live cells expressing the hPtFP of the present invention were then measured, as shown in FIG. 2.

B1: hPtFP DNA: synthetic DNA encoding hPtFP with codons favored for mammalian expression systems (nucleic acid)
DNA: AAGCTTGCCACCATGGTGAACCGGAACGTGCTGAAGAACACCGGCCTGAAGGAGATCATGAGCGCCAAGGCCAGCGTGGAGGGCATCGTGAACAACCACGTGTTCAGCATGGAGGGCTTCGGCAAGGGCAACGTGCTGTTCGGCAACCAGCTGATGCAGATCCGGGTGACCAAGGGCGGCCCTCTGCCCTTCGCCTTCGACATCGTGAGCATCGCCTTCCAGTACGGCAACCGGACCTTCACCAAGTATCCCGACGACATCGCCGACTACTTCGTGCAGAGCTTCCCTGCCGGCTTCTTCTACGAGCGGAACCTGCGGTTCGAGGACGGCGCCATCGTGGACATCCGGAGCGACATCAGCCTGGAGGACGACAAGTTCCACTACAAGGTGGAGTACCGCGGCAACGGCTTCCCTAGCAACGGCCCTGTGATGCAGAAGGCCATCCTGGGCATGGAGCCCAGCTTCGAGGTGGTGTACATGAACAGCGGCGTGCTGGTGGGCGAGGTGGACCTGGTGTACAAGCTGGAGAGCGGCAACTACTACAGCTGCCACATGAAGACCTTCTACCGGAGCAAGGGCGGCGTGAAGGAGTTCCCTGAGTACCTATTCATCCACCACCGGCTGGAGAAGAACTACGTGGAGGAGGGCAGCTTCGTGGAGCAGCACGAGACCGCCATCGCCCAGCTGACCACCATCGGCAAGCCTCTGGGCAGCCTGCACGAGTGGGTGTAAAGCGGCCGCAAGCTTGCCACCATGGTGAACCGGAACGTGCTGAAGAACACCGGCCTGAAGGAGATCATGAGCGCCAAGGCCAGCGTGGAGGGCATCGTGAACAACCACGTGTTCAGCATGGAGGGCTTCGGCAAGGGCAACGTGCTGTTCGGCAACCAGCTGATGCAGATCCGGGTGACCAAGGGCGGCCCTCTGCCCTTCGCCTTCGACATCGTGAGCATCGCCTTCCAGTACGGCAACCGGACCTTCACCAAGTATCCCGACGACATCGCCGACTACTTCGTGCAGAGCTTCCCTGCCGGCTTCTTCTACGAGCGGAACCTGCGGTTCGAGGACGGCGCCATCGTGGACATCCGGAGCGACATCAGCCTGGAGGACGACAAGTTCCACTACAAGGTGGAGTACCGCGGCAACGGCTTCCCTAGCAACGGCCCTGTGATGCAGAAGGCCATCCTGGGCATGGAGCCCAGCTTCGAGGTGGTGTACATGAACAGCGGCGTGCTGGTGGGCGAGGTGGACCTGGTGTACAAGCTGGAGAGCGGCAACTACTACAGCTGCCACATGAAGACCTTCTACCGGAGCAAGGGCGGCGTGAAGGAGTTCCCTGAGTACCTATTCATCCACCACCGGCTGGAGAAGAACTACGTGGAGGAGGGCAGCTTCGTGGAGCAGCACGAGACCGCCATCGCCCAGCTGACCACCATCGGCAAGCCTCTGGGCAGCCTGCACGAGTGGGTGTAAAGCGGCCGC
For B1, the “number and brightness of expressing cells compared with wild type PtFP DNA (visual observation)” value with COS1 cells [1] was “more hPtFP expressing cells and brighter cells than the wild type”. In addition, in the data set with COS1 cells [1] (identical amount of DNA, forty hours post-transfection, intensity in nuclear area (FIG. 3)), the “fluorescent signal compared with wild type Ptilosarcus gurneyi green fluorescent protein” value was “stronger fluorescent signals than the wild type”. Further, the “toxicity to host cells” value in the data set on HEK293 cells is recorded as “does not have toxic effects on the host cells”.

B2: hPtFP: full length humanized Ptilosarcus gurneyi green fluorescent protein, 239 amino acid residues, valine added at position 2 (protein)
chain: MVNRNVLKNTGLKEIMSAKASVEGIVNNHVFSMEGFGKGNVLFGNQLMQIRVTKGGPLPFAFDIVSIAFQYGNRTFTKYPDDIADYFVQSFPAGFFYERNLRFEDGAIVDIRSDISLEDDKFHYKVEYRGNGFPSNGPVMQKAILGMEPSFEVVYMNSGVLVGEVDLVYKLESGNYYSCHMKTFYRSKGGVKEFPEYHFIHHRLEKTYVEEGSFVEQHETAIAQLTTIGKPLGSLHEWV
For the molecule B2, the “absorption and emission spectra compared with wildtype Ptilosarcus gurneyi” value in the data set with COS1 cells [2] is “unchanged”. Besides, the “percentage of positive cells during cell passage” value in the data set on HEK293 cells (HEK293 mixed population, about 30% expressing hPtFP, 2, 4 or 6 days incubation, no selection (FIG. 5)) was “did not change”. Besides, the “toxicity to host cells” value in the data set on HEK293 cells is “not toxic to the cells”.
